Results: patent publication US10801046B2, “Methods and materials for biosynthesizing multifunctional, multivariate molecules via carbon chain modification” (INVISTA NORTH AMERICA S.A.R.L., priority 2016, dated 2020)

Assay: In vivo aminotransferase activity screening, 7-aminoheptanoate by LC-MS
Format: cell-based, Escherichia coli
Details: in vivo conversion of 7-oxoheptanoate to 7-aminoheptanoate, 120 aminotransferases screened
Experimental: A 165-member aminotransferase library from Twist on IPTG-inducible T7- pUC expression vectors was co-transformed into T7 Express lysY/Iq with a constitutive expression pJ23150-derived plasmid bearing the phosphopantetheinyl transferase sfp from Bacillus subtilis, CAR_Srot from Invista and BioC from Serratia marcescens (UniprotKB Accession No. P36571 (SEQ ID NO: 165)). The resulting strains were incubated in 0.5 ml of rich media (terrific broth or LB containing 8% glycerol) supplemented with 0.4 mM IPTG and received 1 g/L monomethyl heptanedioate, 1 g/L heptanedioate, or no organic acid addition, depending on the experiment. Following incubation overnight at 37° C. in a shaking incubator, cells were pelleted and the supernatants were analyzed using LC-MS for 7-aminoheptanoate or monomethyl 7-aminoheptanoate. A Vibrio fluvialis aminotransferase (UniProtKB Accession No. F2XBU9 (SEQ ID NO: 128)) was used as a positive control.

Row | Molecule | 7-aminoheptanoate yield compared to the positive control (F2XBU9)
1 | SEQ ID NO: 172: Pseudomonas taiwanensis SJ9 aminotransferase (protein, Pseudomonas taiwanensis SJ9, Pseudomonas taiwanensis SJ9 aminotransferase) MSQSNILLAKKDVQHHLHPYTDARLHQDVGPLIIDRGEGVYVFDVEGKRYIEAMSGLWSVALGFSNERLVKAAEQQMRKLPFYHIFTHKGHGPSIELAEKLIEIAPVPMSKVFFTNSGSEANDTVVKMIWYRNNALGKPEKKKFISRLNAYHGITAVSASLTGLPVNQRGFDVPLPGFHHVSCPHFYRNGQPGETEEQFADRMAAELESVILREGPETIAAFYGEPLMGAGGVIVPPRTYWEKMQAVCRKYDILIVADEVICGFGRTGKMFGCETFGIQPDVMVISKQMSSSYQPIAAILINEKVFEGIADQSRALGTLGHGFTASGHPVASAVALENIKIIQEQNLVGHAAEMGELLRAKLAGFADHPMVGEVRGCGLIAAVELVTDRKTKAPFETVGRLGRFLAARAQAHGMITRPIGDSIAFCPPLISTKQEIQEIADIFGKAFEDTERWFSQGGK | higher 7-aminoheptanoate yields
2 | SEQ ID NO: 171: Tistrella mobilis aminotransferase (protein, Tistrella mobilis (strain KA081020-065), Tistrella mobilis aminotransferase) MAYSPNSPEARDIAYHLHSYTDARRHEETGSVVLEKGDGVFVEDIHGNRYIEAMAGLWSVALGFSEKRLADAAARQMAKLPFAHTFSYKSNGPVIDLAEKLISLAPVPMSKVFFTNSGSEANDTILKLLWYRSNSMGQPQRKKIISRVRGYHGVTIASASLTGLPNNHRSFDLPIANVLHTGSPHHWKDANPGESEEDFATRRAEELEAMILAEGPETIMAFIGEPVMGAGGVVVPPATYWEKIQAVLAKYDILLIADEVICGFGRTGNMFGSQTYDMRPDIMTMSKQLSSSYLPISAFMINEKVYGPIADESHRIGVLGHGFTAGGHPVASAVALENLKIIEERDLVANAREMGERLRGRFHALEGHPLVGEVRGVGLIAAVELVTNKEAKTALEAPGALGGKVAAALQARGVIVRNMLDAIAFCPPLIIKAEEVDMIADRFEAVLNDVAAEVL | higher 7-aminoheptanoate yields
3 | SEQ ID NO: 121: Haematobacter missouriensis aminotransferase (protein, listed as Haematobacter missouriensis) MMDTLPNSLAARDVKYLLHPNTNARMHEQNGPMVISRGDGIHVYDDAGKEYIEALAGLWSVAVGFGEKRLVEAAQRQMSTLPYYHIFSSKSHEPAIDLAETLVKMTPEHLTRVFYTNSGSEANDTVVKMIWYYNNVLGRPEKKKIIARKNGYHGITVASASLTGLPINHKDFDLPLPQMKHVTTPHFYRFGEEGETEEQFSDRLAQEIEDMILAEGPETVAAFIGEPVIGAGGVLVPPKGYWEKVQKVLKKYDILLVADEVIMGFGRSGKTFACEYYGIKPDFLVLSKQITSSYQPLAAIMLTDAIYQAIADGSQKNGAFGHGYTASGHPVAMAVAIENLKIIEERGLVANAEKVGAYMQKRLREFADHPLVGEVRGVGLIAAVELVADKATKAKFDPVGKAGAIYTRKSAENGLINRAIGDTICFCPPLIITEAQVDEMIARFSKSLDETAAELKG | higher 7-aminoheptanoate yields
4 | SEQ ID NO: 138: Thalassospira profundimaris WP0211 aminotransferase (protein, Thalassospira profundimaris WP0211, Thalassospira profundimaris WP0211 aminotransferase) MNHRPNSLHMSDIAHSMHPYTNMRLHEEKGPMIMAEGNGARVTDSEGKEYIEGLAGLWSVAVGFSETRLADAAYAQLKRLPYYHSFAHKAHEPSIRLAEKLVEMTPEGLNRVFFTNSGSEANDTVVKMAWFLNNGLGRPEKKKFLSRTKAYHGITIASGSLTGLAGNQKDFDLPAIPVTHLSCPHFWRYGEEGETETEFTARLLKELEDTIIAEGPETIAAFIGEPVMGAGGVMTPPEGYWPGVVEICHKYDILVVSDEVINGFGRTGARFGCEKYGFTPDILVTSKQLTSSYMPLAAIVVNDKVYNAIADNTAKLGNFGHGFTGTGHPVACAVGLENLNIIEERDLMGNAKRLEPMFQDGLRAFADHPLIGEIRGVGLIAGLEMADKKTKQPFGKPGTVAAKVVALAAEEGLICRNVYDTVALCPPLIVTEDDVREIHARLGRALDRALDWAKSEGML | higher 7-aminoheptanoate yields
5 | SEQ ID NO: 173: Methylobacterium aquaticum aminotransferase (protein, listed as Methylobacterium aquaticum) MLSNLATRDVETLIHPYTNLAAFRQTGPLVLERGHGVWVYDTDGRPYLEGMAGLWCTALGYSNEELVEAAREQMSRLPFTHLFSGRSHDPAIELAETLKELAPIPVSKVFFTSSGSEANDTQVKLTWYLNNALGRPQKKKIIGRHKGYHGVTVASASLTGLTANHADWDLPLPGFLHAACPHHYRGAEAGETEEAYSARLATELEEMILREGPETVAAFIAEPVMGAGGAIVPPKGYFAAIEPVLARYDVRFIADEVICGFGRLGTWFGSEALGMKPHSLSFAKALTSAYMPLGGVTVDETLYQAMQDQSRKIGTFGHGTTYSGHPVASAVALKTIEIYRRDKIIEGAAEKAPHFQRRLSALEEHPLVGEAKGMGLIGGLEIVADKATKRQYDPKAGVAARCVAFAQEEGLIVRFLTGDRVAVCPPLVIRPDEIDTLFDRLGTALDRTQAWIREQGLTAA | higher 7-aminoheptanoate yields
6 | SEQ ID NO: 170: Acidimicrobium ferrooxidans aminotransferase (protein, Acidimicrobium ferrooxidans; Acidimicrobium ferrooxidans (strain DSM 10331 / JCM 15462 / NBRC 103882 / ICP), Acidimicrobium ferrooxidans aminotransferase) MGRFWHPFGQLYESDTNPVVFVRGEGIWVYDDTGRRYLDATAALWYANVGHGRAEIADAIAAQARELAGYSTFGTFSNRPAEELAEFLSARSPMPESEVFFVSGGGDAVETAVKLARRYFSLVGQPERTVLISRTNGYHGTWGFGTSLGGIPANRTGFGELIPTTVQVPWDDVEAVEAAIVANGPERVAAVIAEPVIGAGGVYPPPPGYFEALGATCRRHGVLLIVDSVICGFGRLGTWFGIERLGVEPDLITFAKGVTSGYLPLGGVMVSGRVAAPFKQPGAPVFRHGPTYGGHPTCTAAGIANCRILEDEQILARGAVLEGELLARLRPLASSALVAEVRGGLGLLGAVELRSDLLAEHPDALARLARLALERGIIVRVLATSIALSPPLIIEPAEIGVIVEGLADALDALAAEL | higher 7-aminoheptanoate yields
7 | SEQ ID NO: 169: Marine sediment metagenome aminotransferase (protein, Description of Unknown: Marine sediment metagenome, Marine sediment metagenome aminotransferase) MTVQPNSIEARDIAFHLHSYTNARKHETNGPVVIDKGEGVFVTDTDGNRYIEAMAGLWSVAVGFGEKRLVDAAAKQMGKLPYYHTFTHKSHSPAIELAEKLVAMAPVPMSKAYFTNSGSEANDTMMKLVRYRSNALGQPQKKKFISRMRGYHGVTLASASLTGLVNNHRDFDLPIEGVLHTTCPHYWREGRDGESEEDFATRCAEDLEAMIQAEGPETIAAFIGEPVMGAGGVVVPPATYWEKIQAVLKRHDILLVADEVICGFGRTGEMFGSQTYGIEPDIMTLSKALSSSYLPISALLINEKVYGPIADRSAEIGTLGTGYTASGHPVAAAVALENLKIIEERDLVGNAREMGTLMQCRLRELENHPLVGEVRGVGLIAAIELVTDKKAKVAMQPPGAMAAQAFAILQKNGVISRAIGDALAFCPPLIIEAGHIDTIVETTRRSLDELQASL | higher 7-aminoheptanoate yields
8 | SEQ ID NO: 174: Candida tenuis aminotransferase (protein, listed as Candida tenuis, Candida tenuis (strain ATCC 10573 / BCRC 21748 / CBS 615 / JCM 9827 / NBRC 10315 / NRRL Y-1498 / VKM Y-70), Candida tenuis aminotransferase) MNSSKSQICLATERQYSAKNYTPMPVVFKKAIGCKVWDVDDNEYLDFGGSYCATNQGHSHPKIVQALIDQAQICALPSRAFTHNLYGDYIKFVCQYFDFEKALPLNGGSEAIEFAIKLARAWGYTKKGISQNEAIVLFAANNYHGRTLGSTSASTTPGARKNYGPFLPKVGPYYGSEGKFIRYNHIEDIEEAFKTDGPNIAAIVLESLQGEAGIYVPKDGYLQQVKRLCEEYNILYIADEVQMGAGRTGTLLSCEQDGIKPDVLVVAKSIGGGVYPTSLVLSSGEIMDCIEPNSHGATFSGSPLSCATSKVALEVLIEDNMIDNAKHLGKIMLDGLNSIREKSSIITDVRGRGLMAGFDIDESQLNGKKVWHVCMLLRSKGIICKMVHAKTIRWAPALVITEEELRFGLRMLEQTINEITALEIADIPDAVTFDYLRY | higher 7-aminoheptanoate yields
9 | SEQ ID NO: 168: Rhodospirillum centenum aminotransferase (protein, Rhodospirillum centenum (strain ATCC 51521 / SW), Rhodospirillum centenum aminotransferase) MPSTAPHLGNSIASRDIASLLHPYTNLKAHESVGPMVITGGRGVTVVDDAGREYIEGVAGLWCTSLGFDEPRLVEAAVRQLRTLPFYHAFAHKSHEPGIELAEKLVALAPVPMSKAFFACSGSEANDTAVKLVWYYNNALGRPQKKKIIGRIKAYHGVTVASASLTGLPNNHRDFDLPIDRILHTDCPHWYRFHEEGEDEEAFASRLAASLEALIQREGPETVAAFIAEPVMGAGGVIVPPRTYFEKIQAVLRKHDVLLIADEVICGFGRTGAMFGSETFGLKPDIMTMAKALTSAYMPLSAVLVSEPIYRACVAESEKIGVFGHGYTYSGHPVSCAVALETLKIYEERDIVAHTRAVGARLQEGLARYRSHPLVGEVRGVGLIAGVELVADKATRQPFDPKLGVAARLAGFAQGHGAILRPIGDTLGFSPPLIITPEEVDELVARFGRALDDTTAWLEHEHRFRPA | higher 7-aminoheptanoate yields
